Reference: article PMC9381132 (Molecular Cancer Therapeutics, 2022)
Where two headings read alike, the source gives them in different places.

T1: untagged human LY6G6D extracellular domain (construct used for structural studies) (human)
T1 chain: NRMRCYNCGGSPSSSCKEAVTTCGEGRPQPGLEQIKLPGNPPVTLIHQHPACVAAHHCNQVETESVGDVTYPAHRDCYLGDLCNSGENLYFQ


Legend:
[1] = target: T1, untagged human LY6G6D extracellular …; assay: SEC-MALS
[2] = target: T2, human LY6G6D (recombinant protein of the BIAcore kinetics and of the epitope binning) (Homo sapiens, UniProt O95868); assay: SPR
[3] = target: T2, human LY6G6D (recombinant protein of …); assay: SPR; remark: listed apart in the source

Binder | stoichiometry N [1] | binding result [2] | binding result [3]
1G4 Fab (Fab, V domains shown) VH: EVQLQQSGPELVKPGASVKMSCKASGYTFTTYVMHWVQQKPGQGLEWIGYINPYNDGTKYNEKFKGKATLTSDTSSSTAYMELSSLTSDDSAVYYCGRRNFDYWGQGTLVTVSS VL: DILMTQSPSSLTVSAGEKVTMSCKSSQSLLLSGNQENYLAWHQQKPGRSPKTLITWASTRISGVSDRFIGSGSGTDFTLTINSVQAEDLAVYYCQQSYSAPYTFGQGTKVEIK | 1 | binds | 
anti-LY6G6D murine mAb clone 1G4 (antibody, V domains shown) VH: EVQLQQSGPELVKPGASVKMSCKASGYTFTTYVMHWVQQKPGQGLEWIGYINPYNDGTKYNEKFKGKATLTSDTSSSTAYMELSSLTSDDSAVYYCGRRNFDYWGQGTLVTVSS VL: DILMTQSPSSLTVSAGEKVTMSCKSSQSLLLSGNQENYLAWHQQKPGRSPKTLITWASTRISGVSDRFIGSGSGTDFTLTINSVQAEDLAVYYCQQSYSAPYTFGQGTKVEIK |  |  | binds
